Assay results as given in US20250197490A1 (HBM ALPHA THERAPEUTICS, published 2025).
Residue numbers refer to the chain shown, from its start. Where two headings read alike, the source gives them in different places. Values belong to the binder of their own block, whether it stands above or below them.

Assays:
Test in all cases: cell-based or functional assay
[1] = molecular target: T1, corticotropin-releasing hormone (CRH) peptide (human and mouse, UniProt P01143 145-185 (rat entry), not fully specified)
T1 peptide: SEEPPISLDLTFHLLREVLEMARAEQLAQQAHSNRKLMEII

[2] = molecular target: T1, corticotropin-releasing hormone (CRH) …
[3] = molecular target: T1, corticotropin-releasing hormone (CRH) …

- hCRHR1-Luc 0.5 nM CRH IC50 [1]: 7.23 nM
B1: PR302309-13 (antibody, human IgG1, kappa, V domains shown)
VH: QVQLVQSGSELKKPGASVKVSCKASGYTFTNYGMNWVRQAPGQGLEWMGWINTYTGEPIYTDDFKGRFVFSLDTSVSTAYLQISSLKAEDTAVYYCARSTMITTGGVFAYWGQGTLVTVSS
VL: DVLMAQTPLSLPVSLGDQASISCRSSQTIVHSDGNTYLEWYLQKPGQSPKLLIYKVSNRFSGVPDRFSGSGSGTDFTLKISRVEAEDLGVYYCFQGSHVPWTFGGGTKLEIKR

- hCRHR1-Luc 0.5 nM CRH IC50 [1]: 1.68 nM
B2: PR302309-14 (antibody, human IgG1, kappa, V domains shown)
VH: B1 VH with V2I, A97S
VL: B1 VL

- hCRHR1-Luc 0.5 nM CRH IC50 [1]: 10.5 nM
B3: PR302309-15 (antibody, human IgG1, kappa, V domains shown)
VH: QVQLVQSGAEVKKPGASVKVSCKASGYTFTNYGMNWVRQAPGQRLEWMGWINTYTGEPIYTDDFKGRVTITRDTSASTAYMELSSLRSEDTAVYYCARSTMITTGGVFAYWGQGTLVTVSS
VL: B1 VL

- hCRHR1-Luc 0.5 nM CRH IC50 [1]: 5.47 nM
B4: PR302309-16 (antibody, human IgG1, kappa, V domains shown)
VH: B3 VH with V2I, R72L, A97S
VL: B1 VL

- hCRHR1-Luc 0.5 nM CRH IC50 [1]: 4.42 nM
B5: PR302309-1 (antibody, human IgG1, kappa, V domains shown)
VH: QIQLVQSGPELKKPGETVKISCKASGYTFTNYGMNWVKQAPGKVLKWMGWINTYTGEPIYTDDFKGRFAFSLETSASTAYLQINNLKNEDTATYFCSRSTMITTGGVFAYWGQGTLVTVSA
VL: DVVMTQSPLSLPVTLGQPASISCRSSQTIVHSDGNTYLEWFQQRPGQSPRRLIYKVSNRFSGVPDRFSGSGSGTDFTLKISRVEAEDVGVYYCFQGSHVPWTFGGGTKVEIKR

- hCRHR1-Luc 0.5 nM CRH IC50 [1]: 6.08 nM
B6: PR302309-9 (antibody, human IgG1, kappa, V domains shown)
VH: B1 VH with V2I, A97S
VL: B5 VL with V2I, S7T, P12S, L15P, F41Y, Q42L, R44K, R50Q, R51L

- hCRHR1-Luc 0.5 nM CRH IC50 [1]: 8.44 nM
B7: PR302309-21 (antibody, human IgG1, kappa, V domains shown)
VH: B3 VH with V2I, R72L, A97S
VL: B5 VL with S7T, L11S, F41Y, S48P, R51L, S72A, V88L

- hCRHR1-Luc 0.5 nM CRH IC50 [1]: 6.69 nM
B8: PR302309-17 (antibody, human IgG1, kappa, V domains shown)
VH: B1 VH
VL: B5 VL with F41Y, R51L, V88L

- hCRHR1-Luc 0.5 nM CRH IC50 [1]: 4.47 nM
B9: PR302309-12 (antibody, human IgG1, kappa, V domains shown)
VH: B1 VH with V2I, A97S
VL: B5 VL with S7T, L11S, F41Y, S48P, R51L, S72A, V88L

- hCRHR1-Luc 0.5 nM CRH IC50 [1]: 3.2 nM
B10: PR302309-10 (antibody, human IgG1, kappa, V domains shown)
VH: B1 VH with V2I, A97S
VL: B1 VL with L3V, A5T, P12S, S14T, L15P, D17Q, Q18P, K50Q, L109V

- hCRHR1-Luc 0.5 nM CRH IC50 [1]: 6.38 nM
B11: PR302309-7 (antibody, human IgG1, kappa, V domains shown)
VH: B1 VH with V2I, A97S
VL: B5 VL

- hCRHR1-Luc 0.5 nM CRH IC50 [1]: 1.08 nM
B12: PR302309-6 (antibody, human IgG1, kappa, V domains shown)
VH: B5 VH
VL: B5 VL with S7T, L11S, F41Y, S48P, R51L, S72A, V88L

- hCRHR1-Luc 0.5 nM CRH IC50 [1]: 3.07 nM
B13: PR302309-20 (antibody, human IgG1, kappa, V domains shown)
VH: B3 VH with V2I, R72L, A97S
VL: B1 VL with L3V, A5T, P12S, S14T, L15P, D17Q, Q18P, K50Q, L109V

- hCRHR1-Luc 0.5 nM CRH IC50 [1]: 0.773 nM
B14: PR302309-2 (antibody, human IgG1, kappa, V domains shown)
VH: B5 VH
VL: B5 VL with F41Y, R51L, V88L

- hCRHR1-Luc 0.5 nM CRH IC50 [1]: 0.454 nM
B15: PR302309-5 (antibody, human IgG1, kappa, V domains shown)
VH: B5 VH
VL: B5 VL with V2I, S7T, L11S, F41L, S48P, R51L, S72A

- hCRHR1-Luc 0.5 nM CRH IC50 [1]: 1.26 nM
B16: PR302309-4 (antibody, human IgG1, kappa, V domains shown)
VH: B5 VH
VL: B1 VL with L3V, A5T, P12S, S14T, L15P, D17Q, Q18P, K50Q, L109V

- hCRHR1-Luc 0.5 nM CRH IC50 [1]: 2.22 nM
B17: PR302309-3 (antibody, human IgG1, kappa, V domains shown)
VH: B5 VH
VL: B5 VL with V2I, S7T, P12S, L15P, F41Y, Q42L, R44K, R50Q, R51L

- hCRHR1-Luc 0.5 nM CRH IC50 [1]: 4.83 nM
B18: PR302309-19 (antibody, human IgG1, kappa, V domains shown)
VH: B3 VH with V2I, R72L, A97S
VL: B5 VL with F41Y, R51L, V88L

- unlabelled nM value (Table 5 matrix; likely hCRHR1-Luc IC50 as in Tables 6-8) [2]: 1.4 nM
B19: PR302036 (antibody, human IgG1, kappa, V domains shown)
VH: EMQLVESGGGLVQPGGSLRLSCAASGFTFSNYWMNWVRQAPGKGLEWVAEIRLKSNNYATHYAESVKGRFTISRDDSKSSVYLQMNSLKTEDTAVYYCTVGTLVYWGQGTLVTVSS
VL: DIVLTQSPDSLAVSLGERATINCRASQSVSTSTYNYMHWFQQKPGQPPKLLIKFASNLESGVPDRFSGSGSGTDFTLTISSLQAEDTAVYYCQHSWEIPYTFGQGTKLEIKR

- unlabelled nM value (Table 5 matrix; likely hCRHR1-Luc IC50 as in Tables 6-8) [2]: 2.65 nM
B20: PR302029 (antibody, human IgG1, kappa, V domains shown)
VH: B19 VH with M2V, A49G, S79N, V81L
VL: B19 VL

- hCRHR1-Luc 0.5 nM CRH IC50 [3]: 0.816 nM
B21: PR302334-8 (antibody, human IgG1, kappa, V domains shown)
VH: EVQLVESGGGLVQPGGSLRLSCAASGFTFSTYAMSWVRQAPGKGLEWVASIRSGGTTYYPDSVKGRFTISRDNSKNTLYLQMNSLRAEDTAVYYCTRGIDWGQGTTVTVSS
VL: EIVMTQSPATLSVSPGERATLSCKASQSVNNDVAWYQQKPGQAPRLLIYYASNRYTGIPARFSGSGSGTEFTLTISSLQSEDLAVYFCQQDYSSWTFGGGTKVEIKR

- hCRHR1-Luc 0.5 nM CRH IC50 [3]: 0.339 nM
B22: PR302334-16 (antibody, human IgG1, kappa, V domains shown)
VH: B21 VH with Q13K, S74A, T77S
VL: NIVMTQTPKFLLVSAGDRITITCKASQSVNNDVAWYQQKPGQSPKLLIYYASNRYTGVPDRFTGSGYGTDFTFTISTVQAEDLAVYFCQQDYSSWTFGGGTNLEIKR

- hCRHR1-Luc 0.5 nM CRH IC50 [3]: 1.42 nM
B23: PR302334-9 (antibody, human IgG1, kappa, V domains shown)
VH: B21 VH
VL: DIVMTQSPDSLAVSLGERATINCKASQSVNNDVAWYQQKPGQPPRLLIYYASNRYTGVPDRFSGSGSGTDFTLTISSLQAEDVAVYYCQQDYSSWTFGGGTKVEIKR

- hCRHR1-Luc 0.5 nM CRH IC50 [3]: 1.7 nM
B24: PR302334-25 (antibody, human IgG1, kappa, V domains shown)
VH: B21 VH with Q13K, S74A, T77S
VL: DIQMTQSSLSASVSLGDRVTITCKASQSVNNDVAWYQQKPGKAPRLLIYYASNRYTGVPSRFSGSGSGTDFTFTISSLQPEDLATYFCQQDYSSWTFGGGTKVEIKR

- hCRHR1-Luc 0.5 nM CRH IC50 [3]: 0.92 nM
B25: PR302334-22 (antibody, human IgG1, kappa, V domains shown)
VH: B21 VH with A49S, T77S, T96A
VL: B21 VL

- hCRHR1-Luc 0.5 nM CRH IC50 [3]: 12.2 nM
B26: PR302334-17 (antibody, human IgG1, kappa, V domains shown)
VH: B21 VH with A49S, T77S, T96A
VL: B22 VL

- hCRHR1-Luc 0.5 nM CRH IC50 [3]: 0.778 nM
B27: PR302334-24 (antibody, human IgG1, kappa, V domains shown)
VH: B21 VH with Q13K, S74A, T77S
VL: B23 VL with V83L, Y87F

- hCRHR1-Luc 0.5 nM CRH IC50 [3]: 1 nM
B28: PR302334-11 (antibody, human IgG1, kappa, V domains shown)
VH: B21 VH
VL: B24 VL with L83I, F87Y

- hCRHR1-Luc 0.5 nM CRH IC50 [3]: 0.839 nM
B29: PR302334-10 (antibody, human IgG1, kappa, V domains shown)
VH: B21 VH
VL: B23 VL with V83L, Y87F

- hCRHR1-Luc 0.5 nM CRH IC50 [3]: 0.986 nM
B30: PR302334-12 (antibody, human IgG1, kappa, V domains shown)
VH: B21 VH
VL: B24 VL

- hCRHR1-Luc 0.5 nM CRH IC50 [3]: 5.12 nM
B31: PR302334-15 (antibody, human IgG1, kappa, V domains shown)
VH: B21 VH with Q13K, A49S, S74A, T77S, T96A
VL: B22 VL

- hCRHR1-Luc 0.5 nM CRH IC50 [3]: 0.279 nM
B32: PR302334-18 (antibody, human IgG1, kappa, V domains shown)
VH: B21 VH with T77S
VL: B22 VL

- unlabelled nM value (Table 5 matrix; likely hCRHR1-Luc IC50 as in Tables 6-8) [2]: 0.674 nM
B33: PR301777 (antibody, human IgG1, kappa, V domains shown)
VH: EMKLEESGGGLVQPGGSMKLSCVASGFTFSNYWMNWVRQSPEKGLEWVAEIRLKSNNYATHYAESVKGRFTISRDDSKSGVYLQMNNLGAEDTGIYYCTVGTLVYWGQGTLVTVSA
VL: DIVLTQSPASLAVSLGQRATISCRASQSVSTSTYNYMHWFQQKPGQPPKLLIKFASNLESGVPARFSGSGSGTDFTLNIHPVEEEDTATFYCQHSWEIPYTFGGGTKLEIKR
